Source: paper PMC9482650, “Quantitative fragmentomics allow affinity mapping of interactomes” (Nature Communications, 2022)

Key:
Test in all cases: holdup assay
Set-up in all cases: key: below the threshold = too weak to quantify, mostly under pKd 3.1 to 4
APBA3_1, O96018 = target: T1, APBA3_1, O96018
T1 sequence (O96018 389-490, limits assumed, looked up): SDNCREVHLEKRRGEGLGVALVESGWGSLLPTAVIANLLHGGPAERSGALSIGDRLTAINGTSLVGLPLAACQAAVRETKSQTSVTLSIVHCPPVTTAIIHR

PARD3B_1, Q8TEW8 = target: T2, PARD3B_1, Q8TEW8
T2 sequence (Q8TEW8 196-299, limits assumed, looked up): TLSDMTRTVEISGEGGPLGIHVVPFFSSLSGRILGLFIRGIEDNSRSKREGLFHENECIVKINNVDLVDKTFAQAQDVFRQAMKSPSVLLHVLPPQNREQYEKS

SHANK1, Q9Y566 = target: T3, SHANK1, Q9Y566
T3 sequence (Q9Y566 658-767, limits assumed, looked up): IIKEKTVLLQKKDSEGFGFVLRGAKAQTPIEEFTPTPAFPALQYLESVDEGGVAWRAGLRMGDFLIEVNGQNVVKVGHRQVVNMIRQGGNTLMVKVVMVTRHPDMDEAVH

LAP2, Q96RT1 = target: LAP2, Q96RT1
Sequence of LAP2, Q96RT1 (Q96RT1 other isoform, or with tags, fused parts or gaps): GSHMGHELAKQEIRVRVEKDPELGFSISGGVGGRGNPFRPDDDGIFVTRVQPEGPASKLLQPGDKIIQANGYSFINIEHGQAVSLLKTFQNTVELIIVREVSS

DLG1_2, Q12959 = target: DLG1_2, Q12959
Sequence of DLG1_2, Q12959 (Q12959 314-412): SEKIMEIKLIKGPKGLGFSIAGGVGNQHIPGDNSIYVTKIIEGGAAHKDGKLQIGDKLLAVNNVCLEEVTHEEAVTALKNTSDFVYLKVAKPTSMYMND

PCLO, Q9Y6V0 = target: T4, PCLO, Q9Y6V0
T4 sequence (Q9Y6V0 4491-4600, limits assumed, looked up): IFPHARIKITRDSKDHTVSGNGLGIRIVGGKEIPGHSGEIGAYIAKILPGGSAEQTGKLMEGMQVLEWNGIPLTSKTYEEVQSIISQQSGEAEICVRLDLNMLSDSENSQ

TJP1_2, Q07157 = target: TJP1_2, Q07157
Sequence of TJP1_2, Q07157 (Q07157 181-274): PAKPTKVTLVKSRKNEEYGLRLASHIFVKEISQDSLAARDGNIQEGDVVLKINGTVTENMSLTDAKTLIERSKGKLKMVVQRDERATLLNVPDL

Inadl_6, Q8NI35 = target: Inadl_6, Q8NI35
Sequence of Inadl_6, Q8NI35 (Q8NI35 1058-1167): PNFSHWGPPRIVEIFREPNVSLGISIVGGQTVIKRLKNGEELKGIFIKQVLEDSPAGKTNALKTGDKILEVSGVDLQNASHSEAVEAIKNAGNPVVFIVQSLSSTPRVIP

GRIP1_4, Q9Y3R0 = target: T5, GRIP1_4, Q9Y3R0
T5 sequence (Q9Y3R0 467-571, limits assumed, looked up): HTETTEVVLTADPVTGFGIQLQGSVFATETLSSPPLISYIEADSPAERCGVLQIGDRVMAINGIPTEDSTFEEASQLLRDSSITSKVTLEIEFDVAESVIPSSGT

GRIP1_3, Q9Y3R0 = target: T6, GRIP1_3, Q9Y3R0
T6 sequence (Q9Y3R0 247-346, limits assumed, looked up): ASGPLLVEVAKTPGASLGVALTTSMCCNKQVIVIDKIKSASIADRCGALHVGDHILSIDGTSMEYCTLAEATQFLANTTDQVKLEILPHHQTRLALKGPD

MPP6, Q9NZW5 = target: T7, MPP6, Q9NZW5
T7 sequence (Q9NZW5 125-219, limits assumed, looked up): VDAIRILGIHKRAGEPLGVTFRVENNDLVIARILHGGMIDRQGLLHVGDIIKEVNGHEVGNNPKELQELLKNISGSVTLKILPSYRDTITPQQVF

DLG3_2, Q92796 = target: T8, DLG3_2, Q92796
T8 sequence (Q92796 221-321, limits assumed, looked up): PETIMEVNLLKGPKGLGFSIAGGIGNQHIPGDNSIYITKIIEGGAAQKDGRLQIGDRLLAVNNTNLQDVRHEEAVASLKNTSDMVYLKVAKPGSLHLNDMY

FRMPD2_3, Q68DX3 = target: FRMPD2_3, Q68DX3
Sequence of FRMPD2_3, Q68DX3 (Q68DX3 1073-1166): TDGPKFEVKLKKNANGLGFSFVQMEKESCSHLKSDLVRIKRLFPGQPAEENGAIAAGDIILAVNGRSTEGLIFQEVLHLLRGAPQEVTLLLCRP

PTPN13_1, Q12923 = target: T9, PTPN13_1, Q12923
T9 sequence (Q12923 1088-1188, limits assumed, looked up): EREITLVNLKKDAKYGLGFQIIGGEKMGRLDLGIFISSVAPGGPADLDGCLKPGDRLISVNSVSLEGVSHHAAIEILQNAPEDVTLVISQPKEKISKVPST

MPDZ_12, O75970 = target: T10, MPDZ_12, O75970
T10 sequence (O75970 1857-1958, limits assumed, looked up): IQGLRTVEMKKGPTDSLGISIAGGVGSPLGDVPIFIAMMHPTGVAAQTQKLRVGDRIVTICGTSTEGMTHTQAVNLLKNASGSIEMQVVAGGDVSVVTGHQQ

DFNB31_1, Q9P202 = target: T11, DFNB31_1, Q9P202
T11 sequence (Q9P202 135-233, limits assumed, looked up): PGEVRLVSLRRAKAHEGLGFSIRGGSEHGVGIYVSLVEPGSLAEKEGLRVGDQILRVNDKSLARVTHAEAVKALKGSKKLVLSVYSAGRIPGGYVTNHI

FRMPD2_2, Q68DX3 = target: FRMPD2_2, Q68DX3
Sequence of FRMPD2_2, Q68DX3 (Q68DX3 944-1038): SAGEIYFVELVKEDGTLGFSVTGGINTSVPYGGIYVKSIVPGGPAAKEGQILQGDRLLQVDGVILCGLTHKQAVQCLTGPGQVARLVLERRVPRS

GIPC2, Q8TF65 = target: GIPC2, Q8TF65
Sequence of GIPC2, Q8TF65 (Q8TF65 112-203): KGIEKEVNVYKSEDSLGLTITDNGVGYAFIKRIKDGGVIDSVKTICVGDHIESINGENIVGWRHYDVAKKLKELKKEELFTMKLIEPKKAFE

CASK, O14936 = target: CASK, O14936
Sequence of CASK, O14936 (O14936 487-570): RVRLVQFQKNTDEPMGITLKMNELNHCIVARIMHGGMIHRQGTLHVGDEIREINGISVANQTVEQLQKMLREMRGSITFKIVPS

APBA1_2, Q02410 = target: T12, APBA1_2, Q02410
T12 sequence (Q02410 742-832, limits assumed, looked up): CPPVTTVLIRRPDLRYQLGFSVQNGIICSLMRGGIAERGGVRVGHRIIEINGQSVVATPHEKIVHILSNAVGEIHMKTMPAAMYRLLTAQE

NHERF2_2, Q15599 = target: NHERF2_2, Q15599
Sequence of NHERF2_2, Q15599 (Q15599 142-238): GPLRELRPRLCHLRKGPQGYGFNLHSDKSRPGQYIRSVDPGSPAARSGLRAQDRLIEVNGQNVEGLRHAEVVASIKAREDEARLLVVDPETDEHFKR

PDZD7_3, Q9H5P4 = target: T13, PDZD7_3, Q9H5P4
T13 sequence (Q9H5P4 857-944, limits assumed, looked up): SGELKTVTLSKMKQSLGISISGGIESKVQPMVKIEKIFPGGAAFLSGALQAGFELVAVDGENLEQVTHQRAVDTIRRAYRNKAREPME

MAGI2_4, Q86UL8 = target: MAGI2_4, Q86UL8
Sequence of MAGI2_4, Q86UL8 (Q86UL8 772-865): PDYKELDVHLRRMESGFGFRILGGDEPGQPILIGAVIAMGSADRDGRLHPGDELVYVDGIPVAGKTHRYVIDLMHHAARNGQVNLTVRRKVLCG

Inadl_4, Q8NI35 = target: Inadl_4, Q8NI35
Sequence of Inadl_4, Q8NI35 (Q8NI35 547-651): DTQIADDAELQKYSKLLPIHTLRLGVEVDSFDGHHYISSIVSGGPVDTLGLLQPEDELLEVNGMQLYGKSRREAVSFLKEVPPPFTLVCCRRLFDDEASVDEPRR

[1] = plain residues with an end cap or a label only (N-terminal biotin on a linker: ttds)
[2] = plain residues with an end cap or a label only (N-terminal biotin on a linker: ado-ado)
[3] = plain residues with an end cap or a label only (N-terminal biotin on a linker: ahx)

B1: HPV31-E6, P17386 (peptide)
chain: SRRPRTETQV
In the case of B1, the pKd (APBA3_1, O96018; [1]) is reported as “below the threshold”, the pKd (PARD3B_1, Q8TEW8; [1]) is reported as “below the threshold” and the pKd (SHANK1, Q9Y566; [1]) is reported as “below the threshold”. The pKd (LAP2, Q96RT1; [1]) was 3.9, the pKd (DLG1_2, Q12959; [1]) was 5.79 and the pKd (PCLO, Q9Y6V0; [1]) was “below the threshold”. The pKd (TJP1_2, Q07157; [1]) was “below the threshold”, the pKd (Inadl_6, Q8NI35; [1]) was “below the threshold” and the pKd (GRIP1_4, Q9Y3R0; [1]) was “below the threshold”. The pKd (GRIP1_3, Q9Y3R0; [1]) was “below the threshold”, the pKd (MPP6, Q9NZW5; [1]) was “below the threshold” and the pKd (DLG3_2, Q92796; [1]) was 5.41. The pKd (FRMPD2_3, Q68DX3; [1]) was “below the threshold”, the pKd (PTPN13_1, Q12923; [1]) was “below the threshold” and the pKd (MPDZ_12, O75970; [1]) was “below the threshold”. For the same binder, the pKd (DFNB31_1, Q9P202; [1]) was 3.55, the pKd (FRMPD2_2, Q68DX3; [1]) was “below the threshold” and the pKd (GIPC2, Q8TF65; [1]) was “below the threshold”. The pKd (CASK, O14936; [1]) was “below the threshold”, the pKd (APBA1_2, Q02410; [1]) was “below the threshold” and the pKd (NHERF2_2, Q15599; [1]) was “below the threshold”. The pKd (PDZD7_3, Q9H5P4; [1]) was 3.71, the pKd (MAGI2_4, Q86UL8; [1]) was 4.48 and the pKd (Inadl_4, Q8NI35; [1]) was “below the threshold”.

B2: PRKCA, P17252 (peptide)
chain: FVHPILQSAV
In the case of B2, the pKd (APBA3_1, O96018; [2]) is reported as “below the threshold”, the pKd (PARD3B_1, Q8TEW8; [2]) is reported as “below the threshold” and the pKd (SHANK1, Q9Y566; [2]) is reported as 4.34. The pKd (LAP2, Q96RT1; [2]) was 4.13, the pKd (DLG1_2, Q12959; [2]) was 4.52 and the pKd (PCLO, Q9Y6V0; [2]) was “below the threshold”. The pKd (TJP1_2, Q07157; [2]) was “below the threshold”, the pKd (Inadl_6, Q8NI35; [2]) was “below the threshold” and the pKd (GRIP1_4, Q9Y3R0; [2]) was “below the threshold”. For the same binder, the pKd (GRIP1_3, Q9Y3R0; [2]) was “below the threshold”, the pKd (MPP6, Q9NZW5; [2]) was “below the threshold” and the pKd (DLG3_2, Q92796; [2]) was 4.26. For the same binder, the pKd (FRMPD2_3, Q68DX3; [2]) was “below the threshold”, the pKd (PTPN13_1, Q12923; [2]) was “below the threshold” and the pKd (MPDZ_12, O75970; [2]) was “below the threshold”. For the same binder, the pKd (DFNB31_1, Q9P202; [2]) was 4.29, the pKd (FRMPD2_2, Q68DX3; [2]) was 3.73 and the pKd (GIPC2, Q8TF65; [2]) was “below the threshold”. The pKd (CASK, O14936; [2]) was “below the threshold”, the pKd (APBA1_2, Q02410; [2]) was 3.69 and the pKd (NHERF2_2, Q15599; [2]) was “below the threshold”. The pKd (PDZD7_3, Q9H5P4; [2]) was 4.55, the pKd (MAGI2_4, Q86UL8; [2]) was “below the threshold” and the pKd (Inadl_4, Q8NI35; [2]) was “below the threshold”.

B3: LNX1, Q8TBB1 (peptide)
chain: TIVSWPGTFL
For B3, the pKd (APBA3_1, O96018; [3]) was “below the threshold”, the pKd (PARD3B_1, Q8TEW8; [3]) was 4.31 and the pKd (SHANK1, Q9Y566; [3]) was 4.24. For the same binder, the pKd (LAP2, Q96RT1; [3]) was “below the threshold”, the pKd (DLG1_2, Q12959; [3]) was “below the threshold” and the pKd (PCLO, Q9Y6V0; [3]) was “below the threshold”. The pKd (TJP1_2, Q07157; [3]) was “below the threshold”, the pKd (Inadl_6, Q8NI35; [3]) was 4.1 and the pKd (GRIP1_4, Q9Y3R0; [3]) was “below the threshold”. The pKd (GRIP1_3, Q9Y3R0; [3]) was “below the threshold”, the pKd (MPP6, Q9NZW5; [3]) was “below the threshold” and the pKd (DLG3_2, Q92796; [3]) was “below the threshold”. For the same binder, the pKd (FRMPD2_3, Q68DX3; [3]) was “below the threshold”, the pKd (PTPN13_1, Q12923; [3]) was “below the threshold” and the pKd (MPDZ_12, O75970; [3]) was 3.54. For the same binder, the pKd (DFNB31_1, Q9P202; [3]) was “below the threshold”, the pKd (FRMPD2_2, Q68DX3; [3]) was 3.58 and the pKd (GIPC2, Q8TF65; [3]) was “below the threshold”. For the same binder, the pKd (CASK, O14936; [3]) was “below the threshold”, the pKd (APBA1_2, Q02410; [3]) was 4.33 and the pKd (NHERF2_2, Q15599; [3]) was 4.21. For the same binder, the pKd (PDZD7_3, Q9H5P4; [3]) was 4.13, the pKd (MAGI2_4, Q86UL8; [3]) was “below the threshold” and the pKd (Inadl_4, Q8NI35; [3]) was “below the threshold”.
